Experimental data taken from paper PMC11629141.

Assays:
[1] = target: FcγRIIB on Raji cells (human (endogenous in Raji)) (UniProt P31994); experiment: flow cytometry on cells; 250.000 Raji cells (FcγRIIB+, CD20+) with 6G11 or light chain constructs 1000-0.005 nM (1:5 dilutions), 30 min RT in PBS-B; anti-human Fc PE secondary antibody
[2] = target: 6G11 (BI‐1206), full‐length antibody containing the PGLALA Fc mutations (human); experiment: BLI; 6G11 or light chain construct (5 µg/mL) loaded on Protein A biosensors; FcγRIIB 125 to 15.6 nM in 1:2 dilutions, 60 s association, 40 s dissociation in kinetics buffer
[3] = target: S2B‐6G11 post MMP‐9 digestion and partial removal of the scFv on a 6G11‐based affinity column (human); experiment: as above
[4] = target: S2N‐6G11 (S2N scFv fused to the N‐terminus of the 6G11 light chain via an MMP‐9 cleavable linker), prior to MMP‐9 digestion (human | chicken); experiment: as above
Chain of S2N‐6G11 (S2N scFv fused to the N‐terminus of the 6G11 light chain via an MMP‐9 cleavable linker), prior to MMP‐9 digestion (human | chicken) (heavy, as listed by the source, chain 1 of 4): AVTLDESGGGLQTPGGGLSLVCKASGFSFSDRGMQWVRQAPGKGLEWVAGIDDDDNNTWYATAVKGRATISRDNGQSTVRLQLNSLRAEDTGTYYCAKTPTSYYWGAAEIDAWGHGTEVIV
Chain of S2N‐6G11 (S2N scFv fused to the N‐terminus of the 6G11 light chain via an MMP‐9 cleavable linker), prior to MMP‐9 digestion (human | chicken) (heavy, as listed by the source, chain 2 of 4): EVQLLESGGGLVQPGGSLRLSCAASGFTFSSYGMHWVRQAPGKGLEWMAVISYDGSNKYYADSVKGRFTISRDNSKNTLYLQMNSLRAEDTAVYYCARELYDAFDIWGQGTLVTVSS
Chain of S2N‐6G11 (S2N scFv fused to the N‐terminus of the 6G11 light chain via an MMP‐9 cleavable linker), prior to MMP‐9 digestion (human | chicken) (light, as listed by the source, chain 3 of 4): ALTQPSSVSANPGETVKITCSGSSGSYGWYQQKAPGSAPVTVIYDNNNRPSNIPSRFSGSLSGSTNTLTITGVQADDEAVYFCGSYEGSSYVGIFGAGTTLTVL
Chain of S2N‐6G11 (S2N scFv fused to the N‐terminus of the 6G11 light chain via an MMP‐9 cleavable linker), prior to MMP‐9 digestion (human | chicken) (light, as listed by the source, chain 4 of 4): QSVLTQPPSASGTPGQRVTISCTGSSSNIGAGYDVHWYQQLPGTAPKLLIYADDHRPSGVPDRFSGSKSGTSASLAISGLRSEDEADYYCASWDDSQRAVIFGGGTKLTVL

Chain of S2B‐6G11 post MMP‐9 digestion and partial removal of the scFv on a 6G11‐based affinity column (human) (heavy, as listed by the source, chain 1 of 2): as the sequence (heavy, as listed by the source, chain 2 of 4) above
Chain of S2B‐6G11 post MMP‐9 digestion and partial removal of the scFv on a 6G11‐based affinity column (human) (light, as listed by the source, chain 2 of 2): as the sequence (light, as listed by the source, chain 4 of 4) above
Chain of 6G11 (BI‐1206), full‐length antibody containing the PGLALA Fc mutations (human) (heavy, as listed by the source, chain 1 of 2): as the sequence (heavy, as listed by the source, chain 2 of 4) above
Chain of 6G11 (BI‐1206), full‐length antibody containing the PGLALA Fc mutations (human) (light, as listed by the source, chain 2 of 2): as the sequence (light, as listed by the source, chain 4 of 4) above

| EC50 [1] | Kd [2] | Kd [3] | Kd [4] | Substance |
| --- | --- | --- | --- | --- |
| 0.4 nM | – | – | – | 6G11 (BI‐1206), full‐length antibody containing the PGLALA Fc mutations |
| – | 32.1 nM | 5.9 nM | 8.3 nM | His‐tagged human FcγRIIB extracellular domain protein (from UniProt P31994 43-217) (domain or fragment) |
